Measurements published in IntAct's records for PubMed 16814718.

B1: Recombination protein 107 (Saccharomyces cerevisiae), P21651 (parent)
chain: MVARGRTDEISTDVSEANSEHSLMITETSSPFRSIFSHSGKVANAGALEESDKQILEWAGKLELESMELRENSDKLIKVLNENSKTLCKSLNKFNQLLEQDAATNGNVKTLIKDLASQIENQLDKVSTAMLSKGDEKKTKSDSSYRQVLVEEISRYNSKITRHVTNKQHETEKSMRCTQEMLFNVGSQLEDVHKVLLSLSKDMHSLQTRQTALEMAFREKADHAYDRPDVSLNGTTLLHDMDEAHDKQRKKSVPPPRMMVTRSMKRRRSSSPTLSTSQNHNSEDNDDASHRLKRAARTIIPWEELRPDTLESEL
partner: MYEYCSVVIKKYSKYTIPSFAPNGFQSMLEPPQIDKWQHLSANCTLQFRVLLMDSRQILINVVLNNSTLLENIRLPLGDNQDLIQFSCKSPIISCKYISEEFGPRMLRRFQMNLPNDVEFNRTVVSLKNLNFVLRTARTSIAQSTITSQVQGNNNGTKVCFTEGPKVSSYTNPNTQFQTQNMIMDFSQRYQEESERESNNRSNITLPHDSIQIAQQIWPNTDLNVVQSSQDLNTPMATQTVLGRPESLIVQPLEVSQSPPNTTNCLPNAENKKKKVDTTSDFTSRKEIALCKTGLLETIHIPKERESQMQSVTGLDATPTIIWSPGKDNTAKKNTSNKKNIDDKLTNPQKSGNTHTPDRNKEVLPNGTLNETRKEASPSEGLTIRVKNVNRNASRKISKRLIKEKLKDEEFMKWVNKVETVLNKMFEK
B2: Recombination protein 107 (Saccharomyces cerevisiae), P21651 (parent)
chain: B1 chain
partner: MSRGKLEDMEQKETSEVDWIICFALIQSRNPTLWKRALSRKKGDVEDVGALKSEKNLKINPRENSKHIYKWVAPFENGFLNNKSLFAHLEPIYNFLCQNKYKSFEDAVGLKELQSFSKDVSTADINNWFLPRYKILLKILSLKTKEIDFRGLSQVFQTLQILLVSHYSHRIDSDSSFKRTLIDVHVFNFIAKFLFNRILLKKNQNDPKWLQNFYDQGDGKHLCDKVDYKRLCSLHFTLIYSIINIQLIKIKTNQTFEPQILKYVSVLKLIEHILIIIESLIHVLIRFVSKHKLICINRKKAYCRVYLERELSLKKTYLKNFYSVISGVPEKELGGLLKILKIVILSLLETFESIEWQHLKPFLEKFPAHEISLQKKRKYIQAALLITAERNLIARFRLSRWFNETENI
B3: Recombination protein 107 (Saccharomyces cerevisiae), P21651 (parent)
chain: B1 chain
partner: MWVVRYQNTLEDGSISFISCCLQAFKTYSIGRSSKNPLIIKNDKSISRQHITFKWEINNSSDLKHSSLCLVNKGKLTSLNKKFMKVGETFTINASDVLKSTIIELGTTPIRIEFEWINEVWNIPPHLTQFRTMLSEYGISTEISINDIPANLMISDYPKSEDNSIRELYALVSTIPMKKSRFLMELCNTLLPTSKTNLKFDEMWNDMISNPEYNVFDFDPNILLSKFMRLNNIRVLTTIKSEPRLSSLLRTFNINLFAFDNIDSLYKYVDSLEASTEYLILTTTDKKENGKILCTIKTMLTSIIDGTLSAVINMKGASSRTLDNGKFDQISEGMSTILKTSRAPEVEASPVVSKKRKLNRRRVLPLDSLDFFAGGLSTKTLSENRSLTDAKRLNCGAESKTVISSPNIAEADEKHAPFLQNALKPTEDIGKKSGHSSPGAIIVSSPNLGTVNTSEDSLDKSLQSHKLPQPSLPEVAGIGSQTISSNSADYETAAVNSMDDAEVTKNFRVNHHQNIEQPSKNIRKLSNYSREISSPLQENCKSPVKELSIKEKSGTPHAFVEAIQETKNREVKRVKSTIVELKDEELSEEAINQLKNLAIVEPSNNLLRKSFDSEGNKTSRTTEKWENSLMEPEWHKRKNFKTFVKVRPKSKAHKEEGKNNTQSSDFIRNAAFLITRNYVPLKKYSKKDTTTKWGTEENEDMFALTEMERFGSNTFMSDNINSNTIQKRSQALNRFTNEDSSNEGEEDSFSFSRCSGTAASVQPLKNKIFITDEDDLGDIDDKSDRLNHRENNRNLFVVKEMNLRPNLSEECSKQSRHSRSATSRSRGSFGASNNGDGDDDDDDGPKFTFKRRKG

Variants of: B1
Details: with re114_yeast REC114, P32841
In the case of MVARGRTDEISTDVSEANSEHSLMITETSAPFRSIFSHSGKVANAGALEESDKQILEWAGKLELESMELRENSDKLIKVLNENSKTLCKSLNKFNQLLEQDAATNGNVKTLIKDLASQIENQLDKVSTAMLSKGDEKKTKSDSSYRQVLVEEISRYNSKITRHVTNKQHETEKSMRCTQEMLFNVGSQLEDVHKVLLSLSKDMHSLQTRQTALEMAFREKADHAYDRPDVSLNGTTLLHDMDEAHDKQRKKSVPPPRMMVTRSMKRRRSSAPTLSTSQNHNSEDNDDASHRLKRAARTIIPWEELRPDTLESEL [S30A;S271A], the “effect of a mutation on the interaction” value is reported as “disrupting interaction strength”.
MVARGRTDEISTDVSEANSEHSLMITETSAPFRSIFSHSGKVANAGALEESDKQILEWAGKLELESMELRENSDKLIKVLNENSKTLCKSLNKFNQLLEQDAATNGNVKTLIKDLASQIENQLDKVSTAMLSKGDEKKTKSDSSYRQVLVEEISRYNSKITRHVTNKQHETEKSMRCTQEMLFNVGSQLEDVHKVLLSLSKDMHSLQTRQTALEMAFREKADHAYDRPDVSLNGTTLLHDMDEAHDKQRKKSVPPPRMMVTRSMKRRRSSSPTLSTSQNHNSEDNDDASHRLKRAARTIIPWEELRPDTLESEL [S30A] was tested, and the “effect of a mutation on the interaction” value was “disrupting interaction strength”.
For MVARGRTDEISTDVSEANSEHSLMITETSSPFRSIFSHSGKVANAGALEESDKQILEWAGKLELESMELRENSDKLIKVLNENSKTLCKSLNKFNQLLEQDAATNGNVKTLIKDLASQIENQLDKVSTAMLSKGDEKKTKSDSSYRQVLVEEISRYNSKITRHVTNKQHETEKSMRCTQEMLFNVGSQLEDVHKVLLSLSKDMHSLQTRQTALEMAFREKADHAYDRPDVSLNGTTLLHDMDEAHDKQRKKSVPPPRMMVTRSMKRRRSSAPTLSTSQNHNSEDNDDASHRLKRAARTIIPWEELRPDTLESEL [S271A], the “effect of a mutation on the interaction” value was “with no effect”.

Variants of: B2
Details: with mei4_yeast MEI4, P29467
MVARGRTDEISTDVSEANSEHSLMITETSAPFRSIFSHSGKVANAGALEESDKQILEWAGKLELESMELRENSDKLIKVLNENSKTLCKSLNKFNQLLEQDAATNGNVKTLIKDLASQIENQLDKVSTAMLSKGDEKKTKSDSSYRQVLVEEISRYNSKITRHVTNKQHETEKSMRCTQEMLFNVGSQLEDVHKVLLSLSKDMHSLQTRQTALEMAFREKADHAYDRPDVSLNGTTLLHDMDEAHDKQRKKSVPPPRMMVTRSMKRRRSSAPTLSTSQNHNSEDNDDASHRLKRAARTIIPWEELRPDTLESEL [S30A;S271A] was tested, and the “effect of a mutation on the interaction” value was “decreasing interaction strength”.
MVARGRTDEISTDVSEANSEHSLMITETSSPFRSIFSHSGKVANAGALEESDKQILEWAGKLELESMELRENSDKLIKVLNENSKTLCKSLNKFNQLLEQDAATNGNVKTLIKDLASQIENQLDKVSTAMLSKGDEKKTKSDSSYRQVLVEEISRYNSKITRHVTNKQHETEKSMRCTQEMLFNVGSQLEDVHKVLLSLSKDMHSLQTRQTALEMAFREKADHAYDRPDVSLNGTTLLHDMDEAHDKQRKKSVPPPRMMVTRSMKRRRSSAPTLSTSQNHNSEDNDDASHRLKRAARTIIPWEELRPDTLESEL [S271A] was tested, and the “effect of a mutation on the interaction” value was “with no effect”.
With MVARGRTDEISTDVSEANSEHSLMITETSAPFRSIFSHSGKVANAGALEESDKQILEWAGKLELESMELRENSDKLIKVLNENSKTLCKSLNKFNQLLEQDAATNGNVKTLIKDLASQIENQLDKVSTAMLSKGDEKKTKSDSSYRQVLVEEISRYNSKITRHVTNKQHETEKSMRCTQEMLFNVGSQLEDVHKVLLSLSKDMHSLQTRQTALEMAFREKADHAYDRPDVSLNGTTLLHDMDEAHDKQRKKSVPPPRMMVTRSMKRRRSSSPTLSTSQNHNSEDNDDASHRLKRAARTIIPWEELRPDTLESEL [S30A] the “effect of a mutation on the interaction” value was “decreasing interaction strength”.

Variants of: B3
Details: with xrs2_yeast XRS2, P33301
With MVARGRTDEISTDVSEANSEHSLMITETSAPFRSIFSHSGKVANAGALEESDKQILEWAGKLELESMELRENSDKLIKVLNENSKTLCKSLNKFNQLLEQDAATNGNVKTLIKDLASQIENQLDKVSTAMLSKGDEKKTKSDSSYRQVLVEEISRYNSKITRHVTNKQHETEKSMRCTQEMLFNVGSQLEDVHKVLLSLSKDMHSLQTRQTALEMAFREKADHAYDRPDVSLNGTTLLHDMDEAHDKQRKKSVPPPRMMVTRSMKRRRSSSPTLSTSQNHNSEDNDDASHRLKRAARTIIPWEELRPDTLESEL [S30A] the “effect of a mutation on the interaction” value was “disrupting interaction strength”.
With MVARGRTDEISTDVSEANSEHSLMITETSAPFRSIFSHSGKVANAGALEESDKQILEWAGKLELESMELRENSDKLIKVLNENSKTLCKSLNKFNQLLEQDAATNGNVKTLIKDLASQIENQLDKVSTAMLSKGDEKKTKSDSSYRQVLVEEISRYNSKITRHVTNKQHETEKSMRCTQEMLFNVGSQLEDVHKVLLSLSKDMHSLQTRQTALEMAFREKADHAYDRPDVSLNGTTLLHDMDEAHDKQRKKSVPPPRMMVTRSMKRRRSSAPTLSTSQNHNSEDNDDASHRLKRAARTIIPWEELRPDTLESEL [S30A;S271A] the “effect of a mutation on the interaction” value was “disrupting interaction strength”.
With MVARGRTDEISTDVSEANSEHSLMITETSSPFRSIFSHSGKVANAGALEESDKQILEWAGKLELESMELRENSDKLIKVLNENSKTLCKSLNKFNQLLEQDAATNGNVKTLIKDLASQIENQLDKVSTAMLSKGDEKKTKSDSSYRQVLVEEISRYNSKITRHVTNKQHETEKSMRCTQEMLFNVGSQLEDVHKVLLSLSKDMHSLQTRQTALEMAFREKADHAYDRPDVSLNGTTLLHDMDEAHDKQRKKSVPPPRMMVTRSMKRRRSSAPTLSTSQNHNSEDNDDASHRLKRAARTIIPWEELRPDTLESEL [S271A] the “effect of a mutation on the interaction” value was “decreasing interaction strength”.
